As a reminder, the Kd is the free concentration of one partner at which half of the binding sites on the other are occupied at equilibrium, for simple one-to-one binding. A high value points to lower affinity.

Drawing on PMC4536312 (Genes & Development, 2015), this text covers binding result and Kd for eight molecules.

The target in data set [1] is T1, U2AF23 R35S;U2AF59 fragment (Schizosaccharomyces …, UniProt Q09176;P36629 1-216;93-161, R35S|).
T1 sequence 1: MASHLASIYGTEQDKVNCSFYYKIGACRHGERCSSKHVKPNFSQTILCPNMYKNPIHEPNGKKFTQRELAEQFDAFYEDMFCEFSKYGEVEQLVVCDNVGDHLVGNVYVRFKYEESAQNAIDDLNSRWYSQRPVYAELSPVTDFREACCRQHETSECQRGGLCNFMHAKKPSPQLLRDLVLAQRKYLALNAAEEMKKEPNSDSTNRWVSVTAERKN
T1 sequence 2: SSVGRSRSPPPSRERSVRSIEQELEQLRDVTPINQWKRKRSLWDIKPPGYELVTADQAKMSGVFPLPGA
The experiment in a line: ITC.

For data set [2], the target named is T2, U2AF23 F20A;U2AF59 fragment (Schizosaccharomyces …, UniProt Q09176;P36629 1-216;93-161, F20A|).
T2 sequence 1: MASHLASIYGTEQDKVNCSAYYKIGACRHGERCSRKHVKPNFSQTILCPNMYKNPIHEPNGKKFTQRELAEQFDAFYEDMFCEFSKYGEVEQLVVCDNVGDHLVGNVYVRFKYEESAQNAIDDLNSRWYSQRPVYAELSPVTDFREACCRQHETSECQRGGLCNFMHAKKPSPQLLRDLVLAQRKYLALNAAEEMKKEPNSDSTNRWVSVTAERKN
T2 sequence 2: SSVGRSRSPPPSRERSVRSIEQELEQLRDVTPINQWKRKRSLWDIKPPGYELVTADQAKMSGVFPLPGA
In words: ITC. (In ITC the heat of successive injections is recorded.)

Data set [3] addresses T3, U2AF23 F165A;U2AF59 fragment (Schizosaccharomyces …, UniProt Q09176;P36629 1-216;93-161, F165A|).
T3 sequence 1: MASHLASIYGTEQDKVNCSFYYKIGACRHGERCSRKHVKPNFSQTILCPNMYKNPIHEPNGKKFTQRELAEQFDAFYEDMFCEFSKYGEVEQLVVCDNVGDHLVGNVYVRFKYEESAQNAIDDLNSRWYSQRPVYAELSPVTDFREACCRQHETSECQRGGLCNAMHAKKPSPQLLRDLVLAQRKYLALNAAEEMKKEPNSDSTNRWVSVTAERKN
T3 sequence 2: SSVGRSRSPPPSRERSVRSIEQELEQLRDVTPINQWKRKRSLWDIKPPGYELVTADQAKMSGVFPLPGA
The experiment in a line: ITC.

The target of data set [4] is T4, U2AF23 R159S;U2AF59 fragment (Schizosaccharomyces …, UniProt Q09176;P36629 1-216;93-161, R159S|).
T4 sequence 1: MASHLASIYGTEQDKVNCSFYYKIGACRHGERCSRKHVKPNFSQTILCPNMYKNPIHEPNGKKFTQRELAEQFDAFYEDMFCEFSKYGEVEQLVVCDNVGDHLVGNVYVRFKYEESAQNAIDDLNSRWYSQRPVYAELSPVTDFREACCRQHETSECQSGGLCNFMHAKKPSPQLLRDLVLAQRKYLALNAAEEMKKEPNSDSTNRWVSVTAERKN
T4 sequence 2: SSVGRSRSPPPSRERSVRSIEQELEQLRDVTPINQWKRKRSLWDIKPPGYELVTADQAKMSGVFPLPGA
In words: ITC.

The target of data set [5] is T5, U2AF23 WT;U2AF59 fragment (Schizosaccharomyces …, UniProt Q09176;P36629 1-216;93-161, |).
T5 sequence 1: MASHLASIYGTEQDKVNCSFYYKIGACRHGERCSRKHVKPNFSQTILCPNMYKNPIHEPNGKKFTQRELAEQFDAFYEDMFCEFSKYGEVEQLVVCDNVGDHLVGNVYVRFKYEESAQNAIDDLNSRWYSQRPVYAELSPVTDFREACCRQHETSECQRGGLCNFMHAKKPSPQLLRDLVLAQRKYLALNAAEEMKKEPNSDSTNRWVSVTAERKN
T5 sequence 2: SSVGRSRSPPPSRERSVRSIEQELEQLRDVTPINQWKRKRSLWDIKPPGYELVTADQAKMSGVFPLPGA
In words: ITC.

In data set [6] the target is T6, U2AF23 R150S;U2AF59 fragment (Schizosaccharomyces …, UniProt Q09176;P36629 1-216;93-161, R150S|).
T6 sequence 1: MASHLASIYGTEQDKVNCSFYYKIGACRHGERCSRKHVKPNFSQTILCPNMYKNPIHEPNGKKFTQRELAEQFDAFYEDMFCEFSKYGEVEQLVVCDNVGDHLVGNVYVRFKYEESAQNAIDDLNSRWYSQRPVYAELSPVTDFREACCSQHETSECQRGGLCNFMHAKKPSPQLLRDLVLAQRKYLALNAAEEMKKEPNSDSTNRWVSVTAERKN
T6 sequence 2: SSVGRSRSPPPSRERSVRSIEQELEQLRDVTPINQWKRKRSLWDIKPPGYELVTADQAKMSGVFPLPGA
The experiment in a line: ITC.

Data set [7] addresses T7, U2AF23 R28S;U2AF59 fragment (Schizosaccharomyces …, UniProt Q09176;P36629 1-216;93-161, R28S|).
T7 sequence 1: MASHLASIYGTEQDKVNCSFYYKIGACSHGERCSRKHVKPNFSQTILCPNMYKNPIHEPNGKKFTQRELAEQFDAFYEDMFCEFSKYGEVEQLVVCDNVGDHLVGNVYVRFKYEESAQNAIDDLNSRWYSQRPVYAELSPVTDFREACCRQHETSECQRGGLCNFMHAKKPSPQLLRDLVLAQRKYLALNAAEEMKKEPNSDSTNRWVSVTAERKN
T7 sequence 2: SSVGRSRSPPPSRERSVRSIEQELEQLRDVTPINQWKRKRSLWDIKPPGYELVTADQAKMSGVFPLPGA
The experiment in a line: ITC.

Data set [8] concerns the target T8, U2AF23 Q151R;U2AF59 fragment (Schizosaccharomyces …, UniProt Q09176;P36629 1-216;93-161, Q151R|).
T8 sequence 1: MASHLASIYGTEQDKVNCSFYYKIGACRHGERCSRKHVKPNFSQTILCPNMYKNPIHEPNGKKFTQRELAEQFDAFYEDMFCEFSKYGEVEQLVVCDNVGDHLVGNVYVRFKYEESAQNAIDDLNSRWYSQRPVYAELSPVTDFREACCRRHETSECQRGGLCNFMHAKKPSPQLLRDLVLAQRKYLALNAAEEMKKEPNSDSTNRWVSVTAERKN
T8 sequence 2: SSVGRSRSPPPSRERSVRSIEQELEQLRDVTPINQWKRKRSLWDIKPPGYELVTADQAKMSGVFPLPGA
The experiment in a line: ITC.

The target in data set [9] is T9, U2AF23, the small subunit of fission yeast Schizosaccharomyces pombe U2AF (Schizosaccharomyces pombe, UniProt Q09176 1-216).
T9 sequence: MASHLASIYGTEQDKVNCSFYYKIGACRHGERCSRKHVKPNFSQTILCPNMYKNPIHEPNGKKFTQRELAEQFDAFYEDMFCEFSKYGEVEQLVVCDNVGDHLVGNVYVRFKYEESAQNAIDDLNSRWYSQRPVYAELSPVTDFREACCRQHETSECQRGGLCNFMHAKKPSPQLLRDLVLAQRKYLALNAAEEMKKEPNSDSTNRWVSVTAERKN
In words: crystal structure.

CUAGG (ssRNA): the binding result in [1], in data set [2], in data set [3], in data set [4] and in data set [6] was “no binding” each time. The Kd is 1.2 µM in [5], 12 µM in data set [7] and 0.75 µM in data set [8].
As for CUGGG (ssRNA), in data set [5], binding was put at a Kd of 63 µM.
For CUCGG (ssRNA), in data set [5], the Kd turned out to be 296 µM.

B1: U2AF59 fragment spanning residues 93–161 (S. pombe U2AF large subunit) (domain or fragment)
chain: SSVGRSRSPPPSRERSVRSIEQELEQLRDVTPINQWKRKRSLWDIKPPGYELVTADQAKMSGVFPLPGA
For B1, the binding result in data set [9] was “binds”.
For the molecule CUAUG (ssRNA), the binding result in data set [5] is “no binding”. Also, binding in data set [8] was put at a Kd of 53 µM.
On to UUUUUUUUUU (ssRNA) [U10], for which the binding result in [5] is recorded as “no binding”.
As to CUACG (ssRNA), the binding result in [5] is listed as “no binding”.
The molecule CUUGG (ssRNA) had a Kd in data set [5] of 429 µM.
